For this assay, the target named is Ku70/Ku80ΔC heterodimer, P12956;P13010. Kind of assay: fluorescence polarisation. Conditions: read at the highest Ku concentration, about 14 µM KuΔC; 100 nM fluorescein-labeled peptide; room temperature; 20 mM HEPES pH 7.5, 200 mM NaCl, 0.5 mM TCEP; parent: est. 190; read off a plot. (In general: Polarisation of emitted light reports the rotation of a fluorescent probe.)

For “fluorescein-labelled WRN-nA peptide (N-terminal KBM of WRN) W18A”, the response was found to be 19 millidegrees.
